Test results: the supplement of paper PMC7877785
± gives the uncertainty stated by the source.

Assay: self-splicing fitness, log relative to wild type (ln ratio); higher = more splicing; Tetrahymena group I intron in knt gene, E. coli kanamycin selection, DiMSum; sequences stand for … in CUCUCU…GGAGGGAAAAGUUAUCAGGCAUGCACCUGGUAGCUAGUCUUUAAACCAAUAGAUUGCAUCGGUUUAAAAGGCAAGACCGUCAAAUUGCGGGAAAGGGGUCAACAGCCGUUCAGUACCAAGUCUCAGGGGAAACUUUGAGAUGGCCUUGCAAAGGGUAUGGUAAUAAGCUGACGGACAUGGUCCUAACCACGCAGCCAAGUCCUAAGUCAACAGAUCUUCUGUUGAUAUGGAUGCAGUUCACAGACUAAAUGUCGGUCGGGGAAGAUGUAUUCUUCUCAUAAGAUAUAGUCGGACCUCUCCUUAAUGGGAGCUAGCGGAUGAAGUGAUGCAACACUGGAGCCGCUGGGAACUAAUUUGUAUGCGAAAGUAUAUUGAUUAGUUUUGGAGUACUCGUGGUCG
Method in brief: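 Fitness was computed with DiMSum as the error-weighted combination of replicate fold changes, kanamycin versus none, each normalised to wild type. The library randomised all eight intron nucleotides of the P1ex region, with the intron placed in the knt kanamycin-resistance gene on pET-22b(+) in E. coli BL21(DE3). Six replicate transformations were grown overnight at 37°C or 30°C on LB agar with or without 25 μg/mL kanamycin, plus 100 μg/mL carbenicillin, 50 μM IPTG and 0.2% rhamnose. Pooled colonies were amplicon-sequenced on an Illumina HiSeq 2500.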

| Sequence | self-splicing fitness (ln) (30 °C) | self-splicing fitness (ln) (37 °C) |
| --- | --- | --- |
| AGGCAGCAAUAUUACGUAGA | -2.33 ± 0.15 | -0.171 ± 0.11 |
| AGGCAGCAAUAUUACGUAUA | -3.08 ± 0.15 | -1.56 ± 0.12 |
| AGGCAGCAAUAUUACGUGCU | -2.46 ± 0.12 | -1.5 ± 0.1 |
| AGGCAGCAAUAUUACGUUGC | -4.18 ± 0.36 | -2.13 ± 0.29 |
| AGGGAGCAAUAUUACGAUAA | – | -2.23 ± 0.42 |
| AGGGAGCAAUAUUACGAUCG | -2.68 ± 0.27 | -2.19 ± 0.46 |
| AGGGAGCAAUAUUACGAUGG | – | -1.29 ± 0.32 |
| AGGGAGCAAUAUUACGCAGU | -2.41 ± 0.47 | -1.44 ± 0.33 |
| AGGGAGCAAUAUUACGCCAA | – | -2.67 ± 0.38 |
| AGGGAGCAAUAUUACGCGAA | -1.94 ± 0.4 | -1.48 ± 0.29 |
| AGGGAGCAAUAUUACGCUCG | -2.31 ± 0.27 | -2.12 ± 0.3 |
| AGGGAGCAAUAUUACGGCAC | – | -1.77 ± 0.42 |
| AGGGAGCAAUAUUACGUACU | -1.74 ± 0.26 | -0.673 ± 0.35 |
| AGGGAGCAAUAUUACGUCGC | -1.42 ± 0.34 | – |
| AGGGAGCAAUAUUACGUCGG | – | -1.52 ± 0.38 |
| AGGGAGCAAUAUUACGUGAA | -3.18 ± 0.32 | -2.53 ± 0.3 |
| AGGGAGCAAUAUUACGUUUG | -3.56 ± 0.39 | -2.66 ± 0.35 |
| AGGUAGCAAUAUUACGAAUC | -3.462 ± 0.031 | -2.2 ± 0.041 |
| AGGUAGCAAUAUUACGAAUU | -1.85 ± 0.017 | -0.996 ± 0.035 |
| AGGUAGCAAUAUUACGAGGA | -3.39 ± 0.034 | -2.43 ± 0.041 |
| AGGUAGCAAUAUUACGAGUA | -2.415 ± 0.023 | -1.52 ± 0.035 |
| AGGUAGCAAUAUUACGAUUG | -3.575 ± 0.026 | -2.44 ± 0.04 |
| AGGUAGCAAUAUUACGCAAG | -2.25 ± 0.018 | -1.26 ± 0.034 |
| AGGUAGCAAUAUUACGCCCA | 0.15 ± 0.02 | -0.0344 ± 0.039 |
| AGGUAGCAAUAUUACGCCUC | -3.88 ± 0.05 | -3.34 ± 0.068 |

| Sequence | self-splicing fitness (ln) (30 °C) | self-splicing fitness (ln) (37 °C) |
| --- | --- | --- |
| AGGUAGCAAUAUUACGCCUG | -0.743 ± 0.017 | -0.212 ± 0.035 |
| AGGUAGCAAUAUUACGCGAG | -1.32 ± 0.014 | -0.6 ± 0.032 |
| AGGUAGCAAUAUUACGCGUU | -1.888 ± 0.015 | -0.903 ± 0.033 |
| AGGUAGCAAUAUUACGCUAA | -1.66 ± 0.018 | -0.802 ± 0.035 |
| AGGUAGCAAUAUUACGCUAG | -4.002 ± 0.038 | -2.89 ± 0.046 |
| AGGUAGCAAUAUUACGGACG | -1.46 ± 0.015 | -0.546 ± 0.034 |
| AGGUAGCAAUAUUACGGCAC | -0.781 ± 0.017 | -0.277 ± 0.035 |
| AGGUAGCAAUAUUACGGCCA | 0.159 ± 0.018 | 0.165 ± 0.037 |
| AGGUAGCAAUAUUACGGCGC | -0.0707 ± 0.015 | 0.163 ± 0.033 |
| AGGUAGCAAUAUUACGGGGG | -3.715 ± 0.031 | -2.94 ± 0.044 |
| AGGUAGCAAUAUUACGGGUG | -3.141 ± 0.021 | -1.99 ± 0.036 |
| AGGUAGCAAUAUUACGGUAU | -1.957 ± 0.015 | -1.07 ± 0.033 |
| AGGUAGCAAUAUUACGUAAC | -2.092 ± 0.019 | -1.18 ± 0.035 |
| AGGUAGCAAUAUUACGUAUU | -2.78 ± 0.018 | -1.45 ± 0.035 |
| AGGUAGCAAUAUUACGUCAC | -3.764 ± 0.036 | -2.23 ± 0.042 |
| AGGUAGCAAUAUUACGUCCA | -0.144 ± 0.015 | -0.214 ± 0.035 |
| AGGUAGCAAUAUUACGUUCC | -0.904 ± 0.018 | -0.623 ± 0.036 |
| AGGUAGCAAUAUUACGUUCU | -0.768 ± 0.014 | -0.545 ± 0.033 |
| AGUAAGCAAUAUUACGAAUA | -1.84 ± 0.38 | – |
| AGUAAGCAAUAUUACGACAG | -2.95 ± 0.2 | -1.94 ± 0.22 |
| AGUAAGCAAUAUUACGAUCG | -0.735 ± 0.17 | -0.248 ± 0.19 |
| AGUAAGCAAUAUUACGAUCU | 0.14 ± 0.15 | -0.333 ± 0.14 |
| AGUAAGCAAUAUUACGCAUA | -2.31 ± 0.25 | -1.38 ± 0.15 |
| AGUAAGCAAUAUUACGCGAC | -3.46 ± 0.23 | -2.63 ± 0.25 |
| AGUAAGCAAUAUUACGCGUA | -1.73 ± 0.15 | -0.118 ± 0.16 |

| Sequence | self-splicing fitness (ln) (30 °C) | self-splicing fitness (ln) (37 °C) |
| --- | --- | --- |
| AGUAAGCAAUAUUACGCUUU | -3.63 ± 0.26 | -2.36 ± 0.22 |
| AGUAAGCAAUAUUACGGAAU | -2.75 ± 0.14 | -1.5 ± 0.15 |
| AGUAAGCAAUAUUACGGACC | -0.0938 ± 0.13 | 0.0977 ± 0.16 |
| AGUAAGCAAUAUUACGGGAC | -3.47 ± 0.26 | -2.45 ± 0.26 |
| AGUAAGCAAUAUUACGGUAA | -2.63 ± 0.28 | -1.68 ± 0.15 |
| AGUAAGCAAUAUUACGGUAU | -2.52 ± 0.17 | -1.35 ± 0.13 |
| AGUAAGCAAUAUUACGUGUC | -3.49 ± 0.21 | -2.24 ± 0.2 |
| AGUAAGCAAUAUUACGUUGC | -4.14 ± 0.21 | -2.21 ± 0.17 |
| AGUAAGCAAUAUUACGUUGU | -3 ± 0.099 | -1.97 ± 0.12 |
| AGUCAGCAAUAUUACGAACA | -0.843 ± 0.076 | -0.406 ± 0.11 |
| AGUCAGCAAUAUUACGAAUU | -0.652 ± 0.064 | -0.509 ± 0.076 |
| AGUCAGCAAUAUUACGACGC | 0.144 ± 0.1 | 0.499 ± 0.13 |
| AGUCAGCAAUAUUACGAGAG | -2.88 ± 0.2 | -1.67 ± 0.18 |
| AGUCAGCAAUAUUACGAGCG | -0.195 ± 0.09 | -0.556 ± 0.1 |
| AGUCAGCAAUAUUACGAGGA | -2.97 ± 0.2 | -1.73 ± 0.16 |
| AGUCAGCAAUAUUACGAGUA | -2.3 ± 0.13 | -1.31 ± 0.1 |
| AGUCAGCAAUAUUACGAGUU | -1.9 ± 0.092 | -0.799 ± 0.077 |
| AGUCAGCAAUAUUACGAUCU | -0.19 ± 0.07 | 0.36 ± 0.09 |
| AGUCAGCAAUAUUACGCACG | -1.02 ± 0.12 | -0.646 ± 0.15 |
| AGUCAGCAAUAUUACGCCAC | -3.68 ± 0.18 | -3.11 ± 0.19 |
| AGUCAGCAAUAUUACGCCUG | -2.49 ± 0.16 | -0.867 ± 0.11 |
| AGUCAGCAAUAUUACGCGAA | -1.21 ± 0.17 | -0.704 ± 0.15 |
| AGUCAGCAAUAUUACGCGCC | -0.491 ± 0.1 | -0.228 ± 0.11 |
| AGUCAGCAAUAUUACGCUAA | -0.794 ± 0.083 | -0.99 ± 0.083 |
| AGUCAGCAAUAUUACGCUAC | -3.7 ± 0.24 | -4.03 ± 0.46 |

| Sequence | self-splicing fitness (ln) (30 °C) | self-splicing fitness (ln) (37 °C) |
| --- | --- | --- |
| AGUCAGCAAUAUUACGGAAU | -1.84 ± 0.084 | -0.425 ± 0.077 |
| AGUCAGCAAUAUUACGGACG | -0.173 ± 0.07 | 0.0506 ± 0.1 |
| AGUCAGCAAUAUUACGGCCG | -1.28 ± 0.11 | -0.527 ± 0.085 |
| AGUCAGCAAUAUUACGGCUU | – | -1.91 ± 0.29 |
| AGUCAGCAAUAUUACGGGGU | -4.54 ± 0.31 | -1.5 ± 0.15 |
| AGUCAGCAAUAUUACGGUAC | -3 ± 0.16 | -1.88 ± 0.21 |
| AGUCAGCAAUAUUACGGUGC | -1.68 ± 0.14 | -1.07 ± 0.19 |
| AGUCAGCAAUAUUACGGUUC | -2.98 ± 0.11 | -1.51 ± 0.11 |
| AGUCAGCAAUAUUACGUCCC | -1.52 ± 0.22 | 0.485 ± 0.27 |
| AGUCAGCAAUAUUACGUCUA | -0.83 ± 0.072 | -0.792 ± 0.071 |
| AGUCAGCAAUAUUACGUCUU | -0.994 ± 0.095 | -0.306 ± 0.11 |
| AGUCAGCAAUAUUACGUGCG | -0.277 ± 0.078 | -0.317 ± 0.088 |
| AGUCAGCAAUAUUACGUGGC | -2.31 ± 0.16 | -2.21 ± 0.15 |
| AGUCAGCAAUAUUACGUGUC | -2.18 ± 0.13 | -2.11 ± 0.19 |
| AGUCAGCAAUAUUACGUUAG | -3.63 ± 0.17 | -1.43 ± 0.12 |
| AGUCAGCAAUAUUACGUUCG | -1.9 ± 0.13 | -1.46 ± 0.15 |
| AGUCAGCAAUAUUACGUUUA | -2.23 ± 0.11 | -1.36 ± 0.099 |
| AGUGAGCAAUAUUACGAAAA | -3.16 ± 0.16 | -2.23 ± 0.23 |
| AGUGAGCAAUAUUACGAGUG | -3.75 ± 0.47 | -1.02 ± 0.24 |
| AGUGAGCAAUAUUACGAUAU | -3.14 ± 0.25 | -2.22 ± 0.28 |
| AGUGAGCAAUAUUACGAUGU | -3.64 ± 0.3 | -2.51 ± 0.25 |
| AGUGAGCAAUAUUACGCACA | -1.35 ± 0.1 | -0.91 ± 0.13 |
